In patent US8192734B2, “Compositions and methods for bone strengthening” (Cornell University, priority 2007, dated 2012):
Marks after values point to notes of the source that are not given here.

Assays:
[1] = test system: weanling pigs fed high P diet; assay: Examples 4-8: cortical and cancellous bone ash and mineral profile; assay type: in vivo, pig; conditions: 8 wk
Experimental: As in Examples 1-3, the animal protocol was approved by Cornell Animal Care and Use Committee. An 8-week feeding trial was conducted at Cornell University Swine Research Farm. Thirty weanling pigs (Yorkshire×Hampshire×Landrace, body weight=8.6±0.5 kg) were allocated into three groups (n=10). […] were fed a corn-soy basal diet (BD)+0.25% inorganic phosphorus (iP, dicalcium phosphate). Group 2 were fed BD+0.35% iP. Group 3 were fed BD+0.35% iP+3,400 units of phytase/kg (Escherichia coli appA2, OptiPhos, JBS United, Inc., Sheridan, Ind.). The BD (Table 7) contained adequate levels of all nutrients except for P^(63), and 0.25% iP is the supplementation level recommended by NRC^(24) to meet the P needs of this age of pigs. […] Pigs were housed in an environmentally-controlled barn (20-25° C.; 12-light: 12-dark cycle), and given free access to feed and water.
After the above mechanical tests, midshaft sections of both femur and metacarpus were cut and washed with de-ionized water. The cortical thickness of both bones was measured by slide caliper in the midshaft. Cortical and cancellous bones were separated for total ash and mineral analysis. A 3-cm long and 3-mm thick midshaft of femur and 1-cm long and 1.5-mm thick midshaft of metacarpus were used for cortical ash analysis. For cancellous bone, sponge-like bone from 3-cm below the growth plate of femur and 1.5-cm below the growth plate of metacarpus were collected. For ash analysis, bones were oven-dried at 110° C. for 24 h, and incinerated in a muffle furnace at 550° C. for 96 h. Concentrations of individual elements in the ash were measured using inductively coupled argon plasma spectrophotometer (ICAP 61E Trace Analyzer, Thermo Jarell Ash corporation, Franklin, Mass.)^(63), and were expressed on ash basis.

[2] = test system: pigs fed P-adequate corn-soybean meal basal diet; assay: Expt 2: metatarsal and femur mineral concentrations (ICP); assay type: in vivo, pig
Experimental: After the breaking strength analysis, samples (˜100 to 200 mg) of metatarsals in both experiments and femur in Experiment 2 from the right legs were used for mineral analysis. Cortical bones were isolated after removing attached connective tissue using a stainless steel scalpel and collecting individual shards using needle-nosed pliers with plastic-covered clamps. […] Concentrations of individual elements in the dried bone samples were measured using inductively coupled argon plasma spectrophotometer (ICAP 61E Trace Analyzer, Thermo Jarell Ash corporation, Franklin, Mass.)(31). Samples were digested in a mixture of HNO3 and HClO4 (9:1, vol/vol), and then diluted in 5% HNO3 before analysis.

[3] = 0.35% iP + Sr 50 mg/kg + phytase 3,400 U/kg, P<0.01
[4] = phytase 2000 U/kg and/or Sr 50 mg/kg, n=6

B1: Phytase: Escherichia coli AppA2 phytase (OptiPhos, JBS United, Inc.), added to diets at feed mixing; AppA2 is SEQ ID NO: 2 (protein, listed as Escherichia coli)
chain: MKAILIPFLSLLIPLTPQSAFAQSEPELKLESVVIVSRHGVRAPTKATQLMQDVTPDAWPTWPVKLGWLTPRGGELIAYLGHYQRQRLVADGLLAKKGCPQPGQVAIIADVDERTRKTGEAFAAGLAPDCAITVHTQADTSSPDPLFNPLKTGVCQLDNANVTDAILSRAGGSIADFTGHRQTAFRELERVLNFSQLNLCLNREKQDESCSLTQALPSELKVSADNVSLTGAVSLASMLTEIFLLQQAQGMPEPGWGRITDSHQWNTLLSLHNAQFYLLQRTPEVARSRATPLLDLIMAALTPHPPQKQAYGVTLPTSVLFIAGHDTNLANLGGALELNWTLPGQPDNTPPGGELVFERWRRLSDNSQWIQVSLVFQTLQQMRDKTPLSLNTPPGEVKLTLAGCEERNAQGMCSLAGFTQIVNEARIPACSL
- decrease of P concentration in cancellous bones, femur and metacarpus ([1]; 0.35% iP + Sr 50 mg/kg + phytase 3,400 U/kg): 22 to 31%
- elevation of Sr concentration in cancellous bone, metacarpus ([1]; 0.35% iP + Sr 50 mg/kg + phytase 3,400 U/kg, P<0.002): 115 fold
- enhancement of cancellous bone ash of femur [1, 3]: 12%
- enhancement of cancellous bone ash of metacarpus [1, 3]: 5%
- increase of total ash concentration of cortical bone, metacarpals [1, 3]: 3%
- increase in Fe concentration of cancellous bone, femur ([1]; 0.35% iP + Sr 50 mg/kg + phytase 3,400 U/kg, P<0.05): 33%
- Femur cancellous bone Ca ([1]; 0.35% iP + phytase 3400 U, n=5): 311.0^b g/Kg ash
- Femur cancellous bone Cr ([1]; 0.35% iP + phytase 3400 U, n=5): 10.0 mg/kg ash
- Femur cancellous bone Fe ([1]; 0.35% iP + phytase 3400 U, n=5): 75.6^a mg/kg ash
- Femur cancellous bone Mg ([1]; 0.35% iP + phytase 3400 U, n=5): 6.0^b g/Kg ash
- Femur cancellous bone Na ([1]; 0.35% iP + phytase 3400 U, n=5): 8.3^b g/Kg ash
- Femur cancellous bone P ([1]; 0.35% iP + phytase 3400 U, n=5): 155.0^b g/Kg ash
- Femur cancellous bone S ([1]; 0.35% iP + phytase 3400 U, n=5): 1833.2^b mg/kg ash
- Femur cancellous bone Sr ([1]; 0.35% iP + phytase 3400 U, n=5): 93680.7^a mg/kg ash
- Femur cancellous bone Zn ([1]; 0.35% iP + phytase 3400 U, n=5): 395.7^a mg/kg ash
- Femur compact bone Ca ([1]; 0.35% iP + phytase 3400 U, n=5): 403.0 g/Kg ash
- Femur compact bone Cr ([1]; 0.35% iP + phytase 3400 U, n=5): 12.6 mg/kg ash
- Femur compact bone Fe ([1]; 0.35% iP + phytase 3400 U, n=5): 25.1 mg/kg ash
- Femur compact bone Mg ([1]; 0.35% iP + phytase 3400 U, n=5): 7.6 g/Kg ash
- Femur compact bone Na ([1]; 0.35% iP + phytase 3400 U, n=5): 9.4 g/Kg ash
- Femur compact bone P ([1]; 0.35% iP + phytase 3400 U, n=5): 199.0 g/Kg ash
- Femur compact bone S ([1]; 0.35% iP + phytase 3400 U, n=5): 649.9^b mg/kg ash
- Femur compact bone Sr ([1]; 0.35% iP + phytase 3400 U, n=5): 568.8^b mg/kg ash
- Femur compact bone Zn ([1]; 0.35% iP + phytase 3400 U, n=5): 278.8 mg/kg ash
- Metacarpus cancellous bone Ca ([1]; 0.35% iP + phytase 3400 U, n=5): 329.0^b g/kg ash
- Metacarpus cancellous bone Cr ([1]; 0.35% iP + phytase 3400 U, n=5): 10.7 mg/kg ash
- Metacarpus cancellous bone Fe ([1]; 0.35% iP + phytase 3400 U, n=5): 66.4^a mg/kg ash
- Metacarpus cancellous bone Mg ([1]; 0.35% iP + phytase 3400 U, n=5): 6.0 g/kg ash
- Metacarpus cancellous bone Na ([1]; 0.35% iP + phytase 3400 U, n=5): 7.6^b g/kg ash
- Metacarpus cancellous bone P ([1]; 0.35% iP + phytase 3400 U, n=5): 161.0^b g/kg ash
- Metacarpus cancellous bone S ([1]; 0.35% iP + phytase 3400 U, n=5): 1334.5^b mg/kg ash
- Metacarpus cancellous bone Sr ([1]; 0.35% iP + phytase 3400 U, n=5): 86221.0^a mg/kg ash
- Metacarpus cancellous bone Zn ([1]; 0.35% iP + phytase 3400 U, n=5): 334.3 mg/kg ash
- Metacarpus compact bone Ca ([1]; 0.35% iP + phytase 3400 U, n=5): 398.0 g/Kg ash
- Metacarpus compact bone Cr ([1]; 0.35% iP + phytase 3400 U, n=5): 13.3 mg/kg ash
- Metacarpus compact bone Fe ([1]; 0.35% iP + phytase 3400 U, n=5): 24.7 mg/kg ash
- Metacarpus compact bone Mg ([1]; 0.35% iP + phytase 3400 U, n=5): 7.2 g/Kg ash
- Metacarpus compact bone Na ([1]; 0.35% iP + phytase 3400 U, n=5): 8.6 g/Kg ash
- Metacarpus compact bone P ([1]; 0.35% iP + phytase 3400 U, n=5): 195.0 g/Kg ash
- Metacarpus compact bone S ([1]; 0.35% iP + phytase 3400 U, n=5): 763.8^b mg/kg ash
- Metacarpus compact bone Sr ([1]; 0.35% iP + phytase 3400 U, n=5): 541.4^b mg/kg ash
- Metacarpus compact bone Zn ([1]; 0.35% iP + phytase 3400 U, n=5): 307.7 mg/kg ash
- increases in Sr concentration in cancellous bones of femur and metacarpus vs 0.35% iP ([1]; phytase 3,400 U/kg into the 0.35% iP diet): > 100 fold
- elevation of metatarsal concentration of Sr ([2]; main effect of phytase 2,000 U/kg, P<0.07): 11%
- femur Ca concentration [2, 4]: 300.3 g/kg
- femur Cr concentration [2, 4]: 7.2 mg/kg
- femur Fe concentration [2, 4]: 7.2 mg/kg
- femur Mg concentration [2, 4]: 5.3 g/kg
- femur Mn concentration [2, 4]: 0.8 mg/kg
- femur Na concentration [2, 4]: 8.3 g/kg
- femur P concentration [2, 4]: 178.6 g/kg
- femur S concentration [2, 4]: 1.0 g/kg
- femur Sr concentration [2, 4]: 94.3 mg/kg
- femur Zn concentration [2, 4]: 220.1 mg/kg
- metatarsal Ca concentration [2, 4]: 187.4 g/kg
- metatarsal Cr concentration [2, 4]: 20.5 mg/kg
- metatarsal Fe concentration [2, 4]: 15.3 mg/kg
- metatarsal Mg concentration [2, 4]: 3.5 g/kg
- metatarsal Mn concentration [2, 4]: 2.0 mg/kg
- metatarsal Na concentration [2, 4]: 7.4 g/kg
- metatarsal P concentration [2, 4]: 91.8 g/kg
- metatarsal S concentration [2, 4]: 0.9 g/kg
- metatarsal Sr concentration [2, 4]: 73.5 mg/kg
- metatarsal Zn concentration [2, 4]: 152.3 mg/kg
